Data on five molecules can be found in patent US20260049134A1 (UNIVERSITY OF FLORIDA RESEARCH FOUNDATION, published 2026).

The target of assay [1] is T1, PTPRG, endogenous in H929 multiple myeloma cells (human, UniProt P23470 20-1445).
T1 construct: Native protein on H929 cells (flow cytometry, siRNA knockdown) and in H929 lysates (IP/MS); also called phosphatase receptor type γ
The assay can be described thus: flow cytometry, H929 + NT Green siRNA; None 416. A general note: In flow cytometry, cells or beads pass a laser one at a time.

In assay [2] the target is T1, PTPRG, endogenous in H929 multiple …. As to the kind of experiment: flow cytometry, H929 + vehicle; None 2.74.
For assay [3] the target is unchanged. As to the kind of experiment: flow cytometry, H929 + NT Green siRNA; None 1.35.
Assay [4] deals with T2, IL13RA1.
T2 construct: coated protein in the ELISA; also called IL13RA1-Fc-His (R&D Systems)
T2 chain: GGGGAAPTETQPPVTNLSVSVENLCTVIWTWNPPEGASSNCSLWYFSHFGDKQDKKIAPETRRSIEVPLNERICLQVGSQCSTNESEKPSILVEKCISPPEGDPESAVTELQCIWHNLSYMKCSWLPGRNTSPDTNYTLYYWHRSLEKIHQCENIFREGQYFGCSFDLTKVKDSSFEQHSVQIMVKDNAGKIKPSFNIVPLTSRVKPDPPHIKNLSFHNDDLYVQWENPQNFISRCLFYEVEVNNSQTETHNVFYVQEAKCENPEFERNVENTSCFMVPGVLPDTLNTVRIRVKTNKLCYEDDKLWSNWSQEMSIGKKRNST
As to the kind of experiment: ELISA on coated IL13RA1-Fc-His. The protocol: Recombinant purified ECDs (50-150 ng) of each putative target protein were coated, incubated with 150 ng of the indicated primary antibody, and binding was detected using a peroxidase-conjugated anti-human Fab secondary antibody. Heatmap represents averages of technical triplicates. (8B) Target validation via siRNA knockdown. H929 cells were transfected with siRNA pools targeting the putative antibody targets ICAM1, CADM1, and PTPRG. Cells were then subjected to cognate IgG binding analysis via flow cytometry. (NT, non-targeting siRNA).
ELISA ELISA was conducted as described previously. Briefly, 50-150 ng of antigen was coated overnight in half-area 96-well plates at 4° C., blocked with 3% BSA at 37° C. for 1 h, and 150 ng of chimeric rabbit/human IgG1 was added, incubating for 2 h at 37° C. […] After incubating at 37° C. for 15 min-1 h (depending on intensity of controls), data were acquired using a SpectraMax M5 plate reader (Molecular Devices).
A general note: ELISA stands for enzyme-linked immunosorbent assay.

The target in assay [5] is T3, PTPRG on U266 cells (human, UniProt P23470).
T3 construct: endogenous on U266 multiple myeloma cells; also called HW-1 target on U266
T3 sequence (P23470 20-1445 limits assumed): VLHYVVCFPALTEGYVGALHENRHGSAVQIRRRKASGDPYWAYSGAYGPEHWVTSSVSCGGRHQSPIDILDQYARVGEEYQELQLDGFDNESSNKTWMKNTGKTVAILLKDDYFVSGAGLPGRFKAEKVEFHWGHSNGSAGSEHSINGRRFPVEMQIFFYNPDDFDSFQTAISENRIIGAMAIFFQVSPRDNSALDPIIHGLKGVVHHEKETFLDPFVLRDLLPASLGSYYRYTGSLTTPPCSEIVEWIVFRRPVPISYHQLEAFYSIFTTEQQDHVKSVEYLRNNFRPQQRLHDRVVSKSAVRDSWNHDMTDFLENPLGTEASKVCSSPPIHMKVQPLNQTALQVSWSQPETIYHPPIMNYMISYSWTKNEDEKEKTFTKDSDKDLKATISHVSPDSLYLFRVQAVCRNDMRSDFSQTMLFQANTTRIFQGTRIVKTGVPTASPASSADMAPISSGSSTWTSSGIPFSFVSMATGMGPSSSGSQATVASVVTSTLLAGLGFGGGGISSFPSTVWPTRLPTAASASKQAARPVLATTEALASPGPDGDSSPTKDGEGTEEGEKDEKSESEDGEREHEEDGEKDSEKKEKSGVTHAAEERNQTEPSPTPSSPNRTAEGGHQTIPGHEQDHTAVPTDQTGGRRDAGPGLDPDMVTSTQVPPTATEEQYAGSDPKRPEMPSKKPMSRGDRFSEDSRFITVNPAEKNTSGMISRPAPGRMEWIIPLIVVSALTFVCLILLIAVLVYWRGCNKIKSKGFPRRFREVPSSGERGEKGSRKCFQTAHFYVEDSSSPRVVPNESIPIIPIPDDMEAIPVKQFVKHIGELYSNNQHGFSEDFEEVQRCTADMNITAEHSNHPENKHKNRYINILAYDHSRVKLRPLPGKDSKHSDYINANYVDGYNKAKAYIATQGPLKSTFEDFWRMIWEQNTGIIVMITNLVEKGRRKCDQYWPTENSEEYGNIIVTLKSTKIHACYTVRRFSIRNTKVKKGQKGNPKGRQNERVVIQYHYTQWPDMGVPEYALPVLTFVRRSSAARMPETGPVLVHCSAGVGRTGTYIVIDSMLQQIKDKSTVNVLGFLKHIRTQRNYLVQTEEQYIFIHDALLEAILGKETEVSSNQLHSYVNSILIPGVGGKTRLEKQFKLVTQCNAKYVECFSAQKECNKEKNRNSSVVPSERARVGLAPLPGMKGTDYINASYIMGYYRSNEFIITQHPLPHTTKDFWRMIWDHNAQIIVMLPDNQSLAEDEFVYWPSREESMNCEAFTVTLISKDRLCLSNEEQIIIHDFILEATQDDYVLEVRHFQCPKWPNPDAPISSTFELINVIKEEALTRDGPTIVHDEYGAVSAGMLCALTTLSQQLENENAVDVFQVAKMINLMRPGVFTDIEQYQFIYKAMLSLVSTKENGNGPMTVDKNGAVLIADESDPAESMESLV
The assay can be described thus: flow cytometry, IgG1 on U266 cells. On the procedure:
Staining protocol. Cells were harvested (5×10⁴ cells per sample), washed once with phosphate-buffered saline (PBS) at RT, and a second time with ice-cold FACS buffer (PBS, 0.5% BSA, 2 mM EDTA, 0.1% NaN₃). Cells were stained in 50 μL of primary antibody for 30 min on ice, washed twice with 100 μL FACS buffer, stained with 50 μL of diluted secondary antibody, washed two more times in FACS, and then resuspended in 50 μL FACS buffer. Samples were acquired on an Accuri C6 Plus or a BD FACSCanto II flow cytometer (both from BD Biosciences). Data were analyzed using FlowJo version 10 software. Primary antibodies: Fab (10 μg/mL), IgG1 (0.1 to 50 μg/mL), or 25 μL polyclonal Fabs from periplasmic extracts. Polyclonal Fabs were produced by diluting bacterial stocks by a factor of 100 in autoinduction media and incubating overnight to induce expression as previously described. […] Viability stains: DAPI (Cell Signaling Technology) or SYTOX AADvanced Dead Cell Stain (Thermo Fisher Scientific). Labeling: The panel of chimeric rabbit/human IgG1s was labeled using the Alexa Fluor 647 Labeling Kit (Thermo Fisher Scientific, #A20173) to facilitate single-step staining. Competition: Unlabeled IgG1s were added at saturating concentrations of 60 μg/mL to block the target receptors, incubating on ice for 30 min, followed by the addition of an equal volume of the Alexa Fluor 647 labeled antibody at 2 μg/mL, and the mixture was incubated on ice for another 30 min.

T1 sequence (P23470 20-1445 limits assumed): as above

B1: TH9-0022 (antibody, human IgG1, kappa, L234A L235A, V domains shown)
VH: QSLEESGGRLVTPGTPLTLTCTVSGFSLSSYAMNWVRQAPGKGLEWIGIINSYGSTYYASWAKGRFTISKTSTTVDLKITSPTTEDTATYFCARVTYDSYGYGYAPYGMDLWGPGTLVTVSS
VL: LVMTQTPSSTSNAVGGTVTIKCQASQSIGNVLAWYQQKPGQPPKLLIYAASTLASGVPSRVGGSRSGTEYTLTISGVQREDAATYYCLGSDSDSDIAFGGGTELEILR
notes: also called TH9-022; negative control
As to B1, in assay [1], the “mAb binding (MFI)” value is 483. In addition, the entries for the “Cells stained (%)” value in assay [2] and in assay [3] were 2.62% and 1.86%, respectively. For the same molecule, the binding result in assay [4] is listed as “no binding (tested: 150 ng IgG1 per well)”.

B2: TH9-0022 (antibody, human IgG1, kappa, L234A L235A, V domains shown)
VH: QSLEESGGRLVTPGTPLTLTCTVSGFSLSSYAMNWVRQAPGKGLEWIGIINSYGSTYYASWAKGRFTISKTSTTVDLKITSPTTEDTATYFCARVTYDSYGYGYAPYGMDLWGPGTLVTVSS
VL: LVMTQTPSSTSNAVGGTVTIKCQASQSIGNVLAWYQQKPGQPPKLLIYAASTLASGVPSRVGGSRSGTEYTLTISGVQREDAATYYCLGSDSDSDIAFGGGTELEILR
notes: also called TH9-022; negative control IgG1
As to B2, the “antibody-bound positive cells (%)” value in assay [5] was determined as 6.5%.

B3: HW-97 chimeric rabbit-human IgG1 LA/LA/PG (antibody, V domains shown)
VH: QKQLVESGGRLVTPGTPLTLTCTVTGIDLSSHGMSWVRQAPGKGLEWIGVIYPSGSTWYASWARGRFTISKTSTTVDLKMTSLTTEDTATHFCARGDVGGADNNIWGPGTLVTVSS
VL: SFVLTQPASVQVDLGQTVSLTCTAETLSRSYASWYQQKPGQAPVLLIYRDTSRPSGVPDRFSGSSSGNTATLTISGAQAGDEADYYCATSDGSGSSYQYVFGGGTQLTVTG
notes: Fc-silenced (L234A/L235A/P329G) IgG1, lambda; Alexa Fluor 647-labeled in single-step flow cytometry; Prototype of cluster C-97
As to B3, the binding result in assay [4] is reported as “no binding (tested: 150 ng IgG1 per well)”.

B4: HW-113 chimeric rabbit-human IgG1 LA/LA/PG (antibody, V domains shown)
VH: QKQLVESGGGLVQPGGSLTLTCTVSGFSLNKYYMGWFRQAPGKGLEWIGVISRSGDTYYSSWAKGRFTISKASTTVDLRITSPTTEDTATYFCARDASSPGFHGDRLDLWGQGTLVTVSS
VL: SFVLTQPASVQVNLGQTVSLTCTADTLSRSYASWYQQKPGQAPVLLIYRDTSRPSGVPDRFSGSSSGNTATLTISGAQAGDEADYYCATSDGIGSNYLWVFGGGTQLTVTG
notes: Fc-silenced (L234A/L235A/P329G) IgG1, lambda; Alexa Fluor 647-labeled in single-step flow cytometry
As for B4, the binding result in assay [4] is on record as “no binding (tested: 150 ng IgG1 per well)”.

B5: HW-101 chimeric rabbit-human IgG1 LA/LA/PG (antibody, V domains shown)
VH: QEQLVESGGRLVTPGTPLTLTCKASGFSLGKYDMSWVRQAPGKGLEWIGTIYAGSGSTWYASWAKGRFTISKTSTTVDLKMTSLTTEDTATYFCARDFLGVNSIWGPGTLVTISS
VL: SFVLTQPASVQVNLGQTVSLTCTADTLSRSYASWYQQKPDQAPVLLIHRDTSRPSGVPDRFSGSNSGNTATLTISGAQAGDEADYYCATSDGSGSNFHFVFGGGTQLTVTG
notes: Fc-silenced (L234A/L235A/P329G) IgG1, lambda; Alexa Fluor 647-labeled in single-step flow cytometry; Cluster C-97
Regarding B5, the binding result in assay [4] is given as “no binding (tested: 150 ng IgG1 per well)”.
